Measured values: PMC3683045, “Induced tRNA Import into Human Mitochondria: Implication of a Host Aminoacyl-tRNA-Synthetase”

Molecular target: preKARS2 (cytosolic precursor of human mitochondrial lysyl-tRNA synthetase) (human, UniProt Q15046-2 1-625)
Assay: EMSA; 10 mM Mg2+; EMSA: 20 mM Tris-HCl pH 7.5, 150 mM NaCl, 10 mM MgCl2, 5 mM DTT, 10% glycerol, 0.1 mg/ml BSA, 30 C, 15 min; native 8% PAGE in 0.5x Tris-borate pH 8.3, 5% glycerol
Settings: protein: recombinant; tags: C-terminal 6xHis; chain copies: 2; label: 5'-32P; D-arm and F-hairpin with linker

preKARS2 (cytosolic precursor of human mitochondrial lysyl-tRNA synthetase), sequence (Q15046 other isoform, or with tags, fused parts or gaps): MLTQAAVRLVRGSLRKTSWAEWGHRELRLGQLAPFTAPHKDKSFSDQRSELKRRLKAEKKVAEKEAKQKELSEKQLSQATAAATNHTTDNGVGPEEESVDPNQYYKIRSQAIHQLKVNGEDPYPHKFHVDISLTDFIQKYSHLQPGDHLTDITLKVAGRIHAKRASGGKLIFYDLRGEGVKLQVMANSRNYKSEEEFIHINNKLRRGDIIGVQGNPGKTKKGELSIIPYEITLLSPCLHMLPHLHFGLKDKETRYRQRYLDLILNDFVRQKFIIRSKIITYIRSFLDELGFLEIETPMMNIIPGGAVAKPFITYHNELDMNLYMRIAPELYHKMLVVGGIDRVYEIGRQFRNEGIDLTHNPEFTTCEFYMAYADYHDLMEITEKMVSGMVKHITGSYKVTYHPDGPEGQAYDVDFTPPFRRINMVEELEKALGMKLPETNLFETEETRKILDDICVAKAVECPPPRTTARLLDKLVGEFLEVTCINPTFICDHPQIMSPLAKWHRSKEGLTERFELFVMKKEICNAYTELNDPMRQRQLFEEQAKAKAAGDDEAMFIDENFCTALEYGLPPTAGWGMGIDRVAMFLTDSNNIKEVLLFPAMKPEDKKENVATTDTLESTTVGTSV

Row | Binder | Kd [nM]
1 | FD-L (structured_RNA) RNA: GCGCAAUCGGUAGCGCCUCUUUACAGUGCUUAGUUCUCGAGCCCCCUACAGGGCUCUU | 400 ± 50
2 | FD-H (structured_RNA) RNA: GCGCAAUCGGUAGCGCAGUAAGCACUGUAAAUGAGCCCCCUACAGGGCUCUU | 400 ± 50
